The values below come from patent CN117866903A (BEILAI PHARMACEUTICAL CO LTD, dated 2024).

In test [1] the target is T1, Human IL-17A重组蛋白 (Gly 24-Ala 155, C端6×His) (human, biotinylated in the ELISA of paragraph 251 (Biotin-IL-17A-His)). Briefly: ELISA: antibody coated at 2 μg/mL, Biotin-IL-17A-His titrated from 10 μg/mL (5-fold, 7 points), HRP-streptavidin. In general terms: An ELISA detects its analyte on a solid surface through an enzyme-linked reagent.
Test [2] concerns the target T1, Human IL-17A重组蛋白 (Gly 24-Ala 155, …). Briefly: cell-based or functional assay.
The target is the same in test [3]. Briefly: BLI (ForteBio OCTET R2): IL-17A-His at 5 μg/mL on HIS1K sensor, antibody 50-3.13 nM, 25℃.

T1 sequence (chain, as listed by the source): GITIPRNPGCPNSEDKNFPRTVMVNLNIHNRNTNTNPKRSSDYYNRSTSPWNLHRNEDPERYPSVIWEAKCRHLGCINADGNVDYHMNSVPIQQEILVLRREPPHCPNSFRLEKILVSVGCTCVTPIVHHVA

B1: 单域抗体3-H10 (Fc fusion)
chain: EVQLVESGGGLVQPGGSLRLSCAASGFSIHIYAMGWYRQAPGKQRELVATITRGGVTNNADSVKGRFTISRDNAKNTAYLQMNSLKPEDTAVYYCNAGGTNGGYWGQGTQVTVSS
notes: not shown: human IgG1 Fc of vector pcDNA3.4-hIgG1-Fc
Turning to B1, the EC50 in test [1] came to 1.22 µg/mL.

B2: 串联单域抗体1-C3-3-H10 (VHH-(GGGGS)3-VHH-IgG1 Fc) (Fc fusion)
chain: DVQLVESGGGLVEPGESLRLSCAAPGEDLGYYAIAWFRQAPGKEREVVSCVTSSGSSTNYLSSVKDRFTISIDNAKNTVYLQMNSLKPEDTAVYYCASTILLCSDYISAFGTWGQGTQVTVASGGGGSGGGGSGGGGSEVQLVESGGGLVQPGGSLRLSCAASGFSIHIYAMGWYRQAPGKQRELVATITRGGVTNNADSVKGRFTISRDNAKNTAYLQMNSLKPEDTAVYYCNAGGTNGGYWGQGTQVTVSS
notes: also called C3-H10; C3-H10重组蛋白; not shown: human IgG1 Fc
The molecule B2 gave an EC50 in test [1] of 1.13 µg/mL. The “串联单域抗体阻断活性检测 (293F-IL-17RA-IL-17Rc-ACT1-NFκB-Luc报告基因细胞株), IC50” value in test [2] is 0.63 nM. Further, in test [3], binding was characterised by a dissociation constant (Kd) of 1.32 nM.

B3: 阳性对照抗体Ixekizumab (antibody, human IgG4 S228P, kappa, V domains shown)
VH: QVQLVQSGAEVKKPGSSVKVSCKASGYSFTDYHIHWVRQAPGQGLEWMGVINPMYGTTDYNQRFKGRVTITADESTSTAYMELSSLRSEDTAVYYCARYDYFTGTGVYWGQGTLVTVSS
VL: DIVMTQTPLSLSVTPGQPASISCRSSRSLVHSRGNTYLHWYLQKPGQSPQLLIYKVSNRFIGVPDRFSGSGSGTDFTLKISRVEAEDVGVYYCSQSTHLPFTFGQGTKLEIKR
notes: also called 阳性抗体; 依奇珠单抗
Take B3: the EC50 in test [1] worked out at 10.1 µg/mL. The “串联单域抗体阻断活性检测 (293F-IL-17RA-IL-17Rc-ACT1-NFκB-Luc报告基因细胞株), IC50” value in test [2] was determined as 2.23 nM. The molecule further had a Kd in test [3] of 0.391 nM.

B4: 单域抗体1-C3 (Fc fusion)
chain: DVQLVESGGGLVEPGESLRLSCAAPGEDLGYYAIAWFRQAPGKEREVVSCVTSSGSSTNYLSSVKDRFTISIDNAKNTVYLQMNSLKPEDTAVYYCASTILLCSDYISAFGTWGQGTQVTVAS
notes: as for B1
Take B4: the EC50 in test [1] was 5.28 µg/mL.

By EC50 is commonly meant the concentration giving half of the maximal effect. Broadly, the Kd is the equilibrium constant for the complex coming apart. Read a high Kd as lower affinity.
